Assay results from paper PMC11574045, “A cofactor-induced repressive type of transcription factor condensation can be induced by synthetic peptides to suppress tumorigenesis” (The EMBO Journal, 2024).

B1: PRDM12 (protein, UniProt Q9H4Q4 1-367, looked up)
PR domain zinc finger protein …: MMGSVLPAEALVLKTGLKAPGLALAEVITSDILHSFLYGRWRNVLGEQLFEDKSHHASPKTAFTAEVLAQSFSGEVQKLSSLVLPAEVIIAQSSIPGEGLGIFSKTWIKAGTEMGPFTGRVIAPEHVDICKNNNLMWEVFNEDGTVRYFIDASQEDHRSWMTYIKCARNEQEQNLEVVQIGTSIFYKAIEMIPPDQELLVWYGNSHNTFLGIPGVPGLEEDQKKNKHEDFHPADSAAGPAGRMRCVICHRGFNSRSNLRSHMRIHTLDKPFVCRFCNRRFSQSSTLRNHVRLHTGERPYKCQVCQSAYSQLAGLRAHQKSARHRPPSTALQAHSPALPAPHAHAPALAAAAAAAAAAAAHHLPAMVL
B2: BANP (protein, UniProt Q8N9N5 1-519, looked up)
Protein BANP: MMSEHDLADVVQIAVEDLSPDHPVVLENHVVTDEDEPALKRQRLEINCQDPSIKTICLRLDSIEAKLQALEATCKSLEEKLDLVTNKQHSPIQVPMVAGSPLGATQTCNKVRCVVPQTTVILNNDRQNAIVAKMEDPLSNRAPDSLENVISNAVPGRRQNTIVVKVPGQEDSHHEDGESGSEASDSVSSCGQAGSQSIGSNVTLITLNSEEDYPNGTWLGDENNPEMRVRCAIIPSDMLHISTNCRTAEKMALTLLDYLFHREVQAVSNLSGQGKHGKKQLDPLTIYGIRCHLFYKFGITESDWYRIKQSIDSKCRTAWRRKQRGQSLAVKSFSRRTPNSSSYCPSEPMMSTPPPASELPQPQPQPQALHYALANAQQVQIHQIGEDGQVQVGHLHIAQVPQGEQVQITQDSEGNLQIHHVGQDGQLLEATRIPCLLAPSVFKASSGQVLQGAQLIAVASSDPAAAGVDGSPLQGSDIQVQYVQLAPVSDHTAGAQTAEALQPTLQPEMQLEHGAIQIQ
B3: POU5F2 (protein, UniProt Q8N7G0 1-328, looked up)
POU domain, class 5, …: MAGHRPSNHFCPLPGSGGGGPRGPMPLRVDTLTWLSTQAAPGRVMVWPAVRPGICPGPDVWRIPLGPLPHEFRGWIAPCRPRLGASEAGDWLRRPSEGALPGPYIALRSIPKLPPPEDISGILKELQQLAKELRQKRLSLGYSQADVGIAVGALFGKVLSQTTICRFEAQQLSVANMWKLRPLLKKWLKEVEAENLLGLCKMEMILQQSGKWRRASRERRIGNSLEKFFQRCPKPTPQQISHIAGCLQLQKDVVRVWFYNRSKMGSRPTNDASPREIVGTAGPPCPGAPVCFHLGLGLPVDIPHYTRLYSAGVAHSSAPATTLGLLRF
B4: PQBP1 (protein, UniProt O60828 2-265, looked up)
Polyglutamine-binding protein …: PLPVALQTRLAKRGILKHLEPEPEEEIIAEDYDDDPVDYEATRLEGLPPSWYKVFDPSCGLPYYWNADTDLVSWLSPHDPNSVVTKSAKKLRSSNADAEEKLDRSHDKSDRGHDKSDRSHEKLDRGHDKSDRGHDKSDRDRERGYDKVDRERERDRERDRDRGYDKADREEGKERRHHRREELAPYPKSKKAVSRKDEELDPMDPSSYSDAPRGTWSTGLPKRNEAKTGADTTAAGPLFQQRPYPSPGAVLRANAEASRTKQQD
B5: PRDM10 (protein, UniProt Q9NQV6 1-1147, looked up)
PR domain zinc finger protein …: MDSKDESSHVWPTSAEHEQNAAQVHFVPDTGTVAQIVYTDDQVRPPQQVVYTADGASYTSVDGPEHTLVYIHPVEAAQTLFTDPGQVAYVQQDATAQQASLPVHNQVLPSIESVDGSDPLATLQTPLGRLEAKEEEDEDEDEDTEEDEEEDGEDTDLDDWEPDPPRPFDPHDLWCEECNNAHASVCPKHGPLHPIPNRPVLTRARASLPLVLYIDRFLGGVFSKRRIPKRTQFGPVEGPLVRGSELKDCYIHLKVSLDKGDRKERDLHEDLWFELSDETLCNWMMFVRPAQNHLEQNLVAYQYGHHVYYTTIKNVEPKQELKVWYAASYAEFVNQKIHDISEEERKVLREQEKNWPCYECNRRFISSEQLQQHLNSHDEKLDVFSRTRGRGRGRGKRRFGPGRRPGRPPKFIRLEITSENGEKSDDGTQDLLHFPTKEQFDEAEPATLNGLDQPEQTTIPIPQLPQETQSSLEHEPETHTLHLQPQHEESVVPTQSTLTADDMRRAKRIRLELQNAALQHLFIRKSFRPFKCLQCGKAFREKDKLDQHLRFHGREGNCPLTCDLCNKGFISSTSLESHMKLHSDQKTYSCIFCPESFDRLDLLKDHVAIHINDGYFTCPTCKKRFPDFIQVKKHVRSFHSEKIYQCTECDKAFCRPDKLRLHMLRHSDRKDFLCSTCGKQFKRKDKLREHMQRMHNPEREAKKADRISRSKTFKPRITSTDYDSFTFKCRLCMMGFRRRGMLVNHLSKRHPDMKIEEVPELTLPIIKPNRDYFCQYCDKVYKSASKRKAHILKNHPGAELPPSIRKLRPAGPGEPDPMLSTHTQLTGTIATPPVCCPHCSKQYSSKTKMVQHIRKKHPEFAQLSNTIHTPLTTAVISATPAVLTTDSATGETVVTTDLLTQAMTELSQTLTTDYRTPQGDYQRIQYIPVSQSASGLQQPQHIQLQVVQVASATSPHQSQQSTVDVGQLHDPQPYPQHAIQVQHIQVSGQPLSPSAQQAQQGLSPSHIQGSSSTQGQALQQQQQQQQNSSVQHTYLPSAWNSFRGYSSEIQMMTLPPGQFVITDSGVATPVTTGQVKAVTSGHYVLSESQSELEEKQTSALSGGVQVEPPAHSDSLDPQTNSQQQTTQYIITTTTNGNGSSEVHITKP
B6: POU3F4 (protein, UniProt P49335 1-361, looked up)
POU domain, class 3, …: MATAASNPYSILSSTSLVHADSAGMQQGSPFRNPQKLLQSDYLQGVPSNGHPLGHHWVTSLSDGGPWSSTLATSPLDQQDVKPGREDLQLGAIIHHRSPHVAHHSPHTNHPNAWGASPAPNPSITSSGQPLNVYSQPGFTVSGMLEHGGLTPPPAAASAQSLHPVLREPPDHGELGSHHCQDHSDEETPTSDELEQFAKQFKQRRIKLGFTQADVGLALGTLYGNVFSQTTICRFEGLQLSFKNMCKLKPLLNKWLEEADSSTGSPTSIDKIAAQGRKRKKRTSIEVSVKGVLETHFLKCPKPAAQEISSLADSLQLEKEVVRVWFCNRRQKEKRMTPPGDQQPHEVYSHTVKTDTSCHDL
B7: PRDM16 (protein, UniProt Q9HAZ2 1-1276, looked up)
Histone-lysine …: MRSKARARKLAKSDGDVVNNMYEPNRDLLASHSAEDEAEDSAMSPIPVGPPSPFPTSEDFTPKEGSPYEAPVYIPEDIPIPADFELRESSIPGAGLGVWAKRKMEAGERLGPCVVVPRAAAKETDFGWEQILTDVEVSPQEGCITKISEDLGSEKFCVDANQAGAGSWLKYIRVACSCDDQNLTMCQISEQIYYKVIKDIEPGEELLVHVKEGVYPLGTVPPGLDEEPTFRCDECDELFQSKLDLRRHKKYTCGSVGAALYEGLAEELKPEGLGGGSGQAHECKDCERMFPNKYSLEQHMVIHTEEREYKCDQCPKAFNWKSNLIRHQMSHDSGKRFECENCVKVFTDPSNLQRHIRSQHVGARAHACPDCGKTFATSSGLKQHKHIHSTVKPFICEVCHKSYTQFSNLCRHKRMHADCRTQIKCKDCGQMFSTTSSLNKHRRFCEGKNHYTPGGIFAPGLPLTPSPMMDKAKPSPSLNHASLGFNEYFPSRPHPGSLPFSTAPPTFPALTPGFPGIFPPSLYPRPPLLPPTSLLKSPLNHTQDAKLPSPLGNPALPLVSAVSNSSQGTTAAAGPEEKFESRLEDSCVEKLKTRSSDMSDGSDFEDVNTTTGTDLDTTTGTGSDLDSDVDSDPDKDKGKGKSAEGQPKFGGGLAPPGAPNSVAEVPVFYSQHSFFPPPDEQLLTATGAAGDSIKAIASIAEKYFGPGFMGMQEKKLGSLPYHSAFPFQFLPNFPHSLYPFTDRALAHNLLVKAEPKSPRDALKVGGPSAECPFDLTTKPKDVKPILPMPKGPSAPASGEEQPLDLSIGSRARASQNGGGREPRKNHVYGERKLGAGEGLPQVCPARMPQQPPLHYAKPSPFFMDPIYSRVEKRKVTDPVGALKEKYLRPSPLLFHPQMSAIETMTEKLESFAAMKADSGSSLQPLPHHPFNFRSPPPTLSDPILRKGKERYTCRYCGKIFPRSANLTRHLRTHTGEQPYRCKYCDRSFSISSNLQRHVRNIHNKEKPFKCHLCNRCFGQQTNLDRHLKKHEHENAPVSQHPGVLTNHLGTSASSPTSESDNHALLDEKEDSYFSEIRNFIANSEMNQASTRTEKRADMQIVDGSAQCPGLASEKQEDVEEEDDDDLEEDDEDSLAGKSQDDTVSPAPEPQAAYEDEEDEEPAASLAVGFDHTRRCAEDHEGGLLALEPMPTFGKGLDLRRAAEEAFEVKDVLNSTLDSEALKHTLCRQAKNQAYAMMLSLSEDTPLHTPSQGSLDAWLKVTGATSESGAFHPINHL
B8: POU4F1 (protein, UniProt Q01851 1-419, looked up)
POU domain, class 4, …: MMSMNSKQPHFAMHPTLPEHKYPSLHSSSEAIRRACLPTPPLQSNLFASLDETLLARAEALAAVDIAVSQGKSHPFKPDATYHTMNSVPCTSTSTVPLAHHHHHHHHHQALEPGDLLDHISSPSLALMAGAGGAGAAAGGGGAHDGPGGGGGPGGGGGPGGGPGGGGGGGPGGGGGGPGGGLLGGSAHPHPHMHSLGHLSHPAAAAAMNMPSGLPHPGLVAAAAHHGAAAAAAAAAAGQVAAASAAAAVVGAAGLASICDSDTDPRELEAFAERFKQRRIKLGVTQADVGSALANLKIPGVGSLSQSTICRFESLTLSHNNMIALKPILQAWLEEAEGAQREKMNKPELFNGGEKKRKRTSIAAPEKRSLEAYFAVQPRPSSEKIAAIAEKLDLKKNVVRVWFCNQRQKQKRMKFSATY
B9: PPARD (protein, UniProt Q03181 1-441, looked up)
Peroxisome …: MEQPQEEAPEVREEEEKEEVAEAEGAPELNGGPQHALPSSSYTDLSRSSSPPSLLDQLQMGCDGASCGSLNMECRVCGDKASGFHYGVHACEGCKGFFRRTIRMKLEYEKCERSCKIQKKNRNKCQYCRFQKCLALGMSHNAIRFGRMPEAEKRKLVAGLTANEGSQYNPQVADLKAFSKHIYNAYLKNFNMTKKKARSILTGKASHTAPFVIHDIETLWQAEKGLVWKQLVNGLPPYKEISVHVFYRCQCTTVETVRELTEFAKSIPSFSSLFLNDQVTLLKYGVHEAIFAMLASIVNKDGLLVANGSGFVTREFLRSLRKPFSDIIEPKFEFAVKFNALELDDSDLALFIAAIILCGDRPGLMNVPRVEAIQDTILRALEFHLQANHPDAQYLFPKLLQKMADLRQLVTEHAQMMQRIKKTETETSLHPLLQEIYKDMY

test system: HEK293FT cells transfected with TF library; assay: Screening of TF condensates based on fluorescent puncta; format: cell-based; conditions: Figure 1B numerical data; TF library screen, one value per transcriptional factor
Summary of the method: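 Cells were seeded onto plasmid/PEI-loaded wells (plasmid 1.6 μg/ml final) and grown 60 h. Medium with or without glucose followed for 12 h. Fixed, permeabilized cells were stained against Flag or GAL4 tags, and condensate puncta were quantified from 50 random fields per well.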

| Molecule | Z score of condensed fraction |
| --- | --- |
| B1 | -1.027 |
| B2 | 1.258 |
| B3 | 1.226 |
| B4 | -0.5347 |
| B5 | 0.3409 |
| B6 | -0.484 |
| B7 | -0.4468 |
| B8 | -0.7489 |
| B9 | -0.9649 |
